This test addresses T1, GST-tagged non-phosphorylatable variant RssB D51E (Serratia marcescens, UniProt Q8GP20 1-219, D51E).
T1 construct: RssB, response regulator of the RssAB two-component system, Serratia marcescens CH-1, with D51E; plasmid pGST-RssB^D51E (pGEX-2T-rssB D51E); used to mimic unphosphorylated RssB; also called GST-RssB^D51E; source: E. coli BL21(DE3)pLysS, purified
T1 sequence: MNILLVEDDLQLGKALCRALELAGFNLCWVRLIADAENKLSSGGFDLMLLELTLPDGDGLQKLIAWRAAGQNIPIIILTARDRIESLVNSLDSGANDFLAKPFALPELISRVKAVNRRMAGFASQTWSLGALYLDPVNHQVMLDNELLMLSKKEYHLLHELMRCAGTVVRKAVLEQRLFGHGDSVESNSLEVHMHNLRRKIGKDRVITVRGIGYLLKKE
As to the kind of experiment: pull-down; GST, GST-RssB or GST-RssB D51E pretreated with acetyl-phosphate, incubated with His-cRssA and glutathione sepharose-4B in interaction buffer (20 mM Tris-HCl pH 7.5, 10 mM MgCl2, 100 mM KCl), 4°C 1 hr; washed; SDS-PAGE, Coomassie stain and anti-hexa-histidine blot. As to conditions: both partners purified.

B1: poly histidine-tagged cytoplasmic region of RssA (domain or fragment)
chain: LRPLRQIARTISDRQPGNLSPINVSEQYQEIRPVVMEVNKLMARIDAANQREKRFMADAAHELRTPIAAVLAQLHLLTQVTEQQERREIIGDMQQGLDRAASLSRQLINLAKLEAEDFPLKIEAVDIYAEIGKCIAQHVPYALEKDVELSLDGSEDVVVSTDRRALIAIFTNLLDNALKYAPPGSRIEANIRSLAPLGCYITLRDNGPGVSEEHRSRLFERFYRVPGTQQTGSGLGLAIARNLADKIGAQLRVTEGLDDRGIGFIIDLPESYRPQTESEPRP
notes: RssA, inner membrane sensor kinase of the RssAB two-component system, Serratia marcescens CH-1; also called His-cRssA; cRssA; source: E. coli BL21(DE3)pLysS, recombinant protein for purification
For the molecule B1, the “fold His-cRssA pulled down relative to GST-RssB” value is about 2 fold.

(Values after PMC3162612, “RssAB Signaling Coordinates Early Development of Surface Multicellularity in Serratia marcescens” (PLoS ONE, 2011).)
